Measured values as given in patent US20210009686A1 (published 2021).

Biological target: CLDN18.2
Experiment: FACS binding, KATO III cells

B1: IMAB362 (antibody, V domains shown)
VH: QVQLQQPGAELVRPGASVKLSCKASGYTFTSYWINWVKQRPGQGLEWIGNIYPSDSYTNYNQKFKDKATLTVDKSSSTAYMQLSSPTSEDSAVYYCTRSWRGNSFDYWGQGTTLTVSS
VL: DIVMTQSPSSLTVTAGEKVTMSCKSSQSLLNSGNQKNYLTWYQQKPGQPPKLLIYWASTRESGVPDRFTGSGSGTDFTLTISSVQAEDLAVYYCQNDYSYPFTFGSGTKLEIKR
In the case of B1, the EC50 is reported as 0.67 µg/mL.
